Measured values: paper doi:10.1101/2021.05.25.445566 (bioRxiv, 2021)
Residue numbers refer to the chain shown, from its start. Names may count otherwise.

T1: MlaF K47A (Walker A variant) (UniProt P63386 1-269, K47A)
T1 sequence: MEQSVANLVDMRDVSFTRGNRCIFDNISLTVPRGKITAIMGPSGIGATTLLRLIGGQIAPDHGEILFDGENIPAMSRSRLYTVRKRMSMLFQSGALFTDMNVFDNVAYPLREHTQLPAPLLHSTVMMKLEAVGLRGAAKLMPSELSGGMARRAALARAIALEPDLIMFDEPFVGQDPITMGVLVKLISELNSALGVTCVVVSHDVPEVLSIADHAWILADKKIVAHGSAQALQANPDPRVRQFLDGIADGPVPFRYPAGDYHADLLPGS

T2: MlaF, nucleotide binding domain of the MlaFEDB ABC transporter (UniProt P63386 1-269)
T2 sequence: T1 sequence with A47K

B1: MlaD, substrate-binding MCE-domain protein of the MlaFEDB complex (natural protein)
chain: MQTKKNEIWVGIFLLAALLAALFVCLKAANVTSIRTEPTYTLYATFDNIGGLKARSPVSIGGVVVGRVADITLDPKTYLPRVTLEIEQRYNHIPDTSSLSIRTSGLLGEQYLALNVGFEDPELGTAILKDGDTIQDTKSAMVLEDLIGQFLYGSKGDDNKNSGDAPAAAPGNNETTEPVGTTK
B2: MlaD L106N/L107N (natural protein)
chain: B1 chain with L106N, L107N
B3: MlaE, His-tagged (His-E), permease of the MlaFEDB ABC transporter (natural protein)
chain: MLLNALASLGHKGIKTLRTFGRAGLMLFNALVGKPEFRKHAPLLVRQLYNVGVLSMLIIVVSGVFIGMVLGLQGYLVLTTYSAETSLGMLVALSLLRELGPVVAALLFAGRAGSALTAEIGLMRATEQLSSMEMMAVDPLRRVISPRFWAGVISLPLLTVIFVAVGIWGGSLVGVSWKGIDSGFFWSAMQNAVDWRMDLVNCLIKSVVFAITVTWISLFNGYDAIPTSAGISRATTRTVVHSSLAVLGLDFVLTALMFGN
B4: MlaB, cytoplasmic STAS-domain protein of the MlaFEDB complex (natural protein)
chain: MSESLSWMQTGDTLALSGELDQDVLLPLWEMREEAVKGITCIDLSRVSRVDTGGLALLLHLIDLAKKQGNNVTLQGVNDKVYTLAKLYNLPADVLPR
B5: MlaB T52A (natural protein)
chain: B4 chain with T52A
B6: MlaD Δ141-183 (natural protein)
chain: MQTKKNEIWVGIFLLAALLAALFVCLKAANVTSIRTEPTYTLYATFDNIGGLKARSPVSIGGVVVGRVADITLDPKTYLPRVTLEIEQRYNHIPDTSSLSIRTSGLLGEQYLALNVGFEDPELGTAILKDGDTIQDTKSA

Experiments:
[1] = molecular target: B3; experiment: SEC
[2] = molecular target: the molecule itself; experiment: SDS-PAGE of SDS-resistant oligomers
[3] = molecular target: T1, MlaF K47A (Walker A variant); experiment: SEC
[4] = molecular target: T2, MlaF, nucleotide binding domain of the …; experiment: SEC

Binder	binding result [1]	stoichiometry N [2]	binding result [3]	binding result [4]
B1	binds			
B2	binds	6		
B3			binds	binds
B4	binds			
B5	binds			
B6	binds	6		
